Assay [1] concerns the target T1, SARS-CoV-2 Spike (SARS-CoV-2, UniProt P0DTC2 16-685).
In assay [2] the target is T1, SARS-CoV-2 Spike. The experiment in a line: inhibitor screening kit, ADGN-106 nanoparticles (Example 6, section A).
The target of assay [3] is T1, SARS-CoV-2 Spike. The experiment in a line: inhibitor screening kit, ADGN-106 nanoparticles (Example 6, section B).

Experimental findings from patent US20230304010A1 (AADIGEN, published 2023) are described below.

Several values for one entry are separate records, joined by “and”; a condition that tells them apart may be missing. Identical values can stand only once.

B1: Seq27 (LNCOV-27)/ADGN-106 nanoparticle complex (other)
peptide 1: EQAKTFLDKFNHEAEDLFPKWSAFLKEQSTLAQMYG
peptide 2: LWRALWRLWRSLWRLLWK
For B1, the IC50 in the assay with SARS-CoV-2 Spike [1] is 1.8 nM and 1.1 nM. Moreover, in the assay with SARS-CoV-2 Spike [2], the “fold more potent than SBP-1-ADGN-106/ADGN-106 complex” value stood at 6 fold and the “fold more potent than SBP-1 peptide/ADGN-106 complex” value stood at 40 fold. In the assay with SARS-CoV-2 Spike [3], the “fold more potent than SBP-1-ADGN-106/ADGN-106 complex” value was found to be 4 fold and the “fold more potent than SBP-1 peptide/ADGN-106 complex” value was determined as 35 fold.

B2: Seq28 (LNCOV-20)/ADGN-106 nanoparticle complex (other)
peptide 1: KTFLDKFNHEAEDLFPGPKWSAFLKEQSTLAQMYG
peptide 2: LWRALWRLWRSLWRLLWK
Take B2: in the assay with SARS-CoV-2 Spike [1], the IC50 was 2.7 nM and 2.1 nM. Further, in the assay with SARS-CoV-2 Spike [2], the “fold more potent than SBP-1-ADGN-106/ADGN-106 complex” value stood at 6 fold and the “fold more potent than SBP-1 peptide/ADGN-106 complex” value came out at 40 fold. For the same molecule, in the assay with SARS-CoV-2 Spike [3], the “fold more potent than SBP-1-ADGN-106/ADGN-106 complex” value worked out at 4 fold and the “fold more potent than SBP-1 peptide/ADGN-106 complex” value was 35 fold.
